Data taken from patent publication US20260176683A1 (RIJKSUNIVERSITEIT GRONINGEN, published 2026).

B1: YaxAΔ40BN-strepII-70aa-flex nanopore (other)
chain 1: […]
chain 2: MSYYHHHHHHDYDIPTTENLYFQGWSHPQFEKGSSGSTSNASAGTGSATGSNSTAGASSGNSAGTGTSSGSTGSANSSAGTGSGSATASAGNSGTSTAGNSTAEISTFPHSGLSYPDINFKIFSQGVKNISHLAQFKTTGVEVLQEKALRVSLYSQRLDVIVRESLSSLQVKLENTLALTYFTTLEEIDEALISQDIDEESKSEMRKERINIIKNLSNDITQLKQLFIEKTELLDKSSSDLHNVVIIEGTDKVLQAEQLRQKQLTEDIATKELERKEIEKKRDKIIEALDVIREHNLVDAFKDLIPTGENLSELDLAKPEIELLKQSLEITKKLLGQFSEGLKYIDLTDARKKLDNQIDTASTRLTELNRQLEQSEKLIAGVNAIIKIDQEKSAVVVEAEKLSRAWHIFIHEITALQGTSLNEVELSKPLIKQQIYLESLIKQLI
B2: His6-TEV-YaxA (full-length YaxA monomer) (other)
chain: MSYYHHHHHHDYDIPTTENLTRSSENLYFQSGGTQTQLAIDNVLASAESTIQLNELPKVVLDFITGEQTSVARSGGIFTKEDLINLKLYVRKGLSLPTRQDEVEAYLGYKKIDVAGLEPKDIKLLFDEIHNHALNWNDVEQAVLQQSLDLDIAAKNIISTGNEIINLINQMPITLRVKTLLGDITDKQLENITYESADHEVASALKDILDDMKGDINRHQTTTENVRKKVSDYRITLTGGELSSGDKVNGLEPQVKTKYDLMEKSNMRKSIKELDEKIKEKRQRIEQLKKDYDKFVGLSFTGAIGGIIAMAITGGIFGAKAENARKEKNALISEVAELESKVSSQRALQTALEALSLSFSDIGIRMVDAESALNHLDFMWLSVLNQITESQIQFAMINNALRLTSFVNKFQQVITPWQSVGDSARQLVDIFDEAIKEYKKVYG

Experiments:
C-reactive protein = target: T1, C-reactive protein (UniProt P02741 19-224); assay: single-nanopore electrophysiology, CRP added to cis
T1 construct: also called CRP
T1 sequence: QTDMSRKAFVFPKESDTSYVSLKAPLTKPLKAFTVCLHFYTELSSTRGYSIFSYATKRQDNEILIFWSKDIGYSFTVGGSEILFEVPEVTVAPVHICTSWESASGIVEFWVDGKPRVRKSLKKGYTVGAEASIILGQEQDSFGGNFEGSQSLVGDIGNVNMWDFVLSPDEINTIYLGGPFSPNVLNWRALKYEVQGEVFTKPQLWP

[1] = target: His6-TEV-YaxB (full-length YaxB monomer) (Yersinia enterocolitica); assay: 1:1 mixing of monomers, SEC, insertion into lipid bilayers

Row | Binder | binding result (C-reactive protein) | binding result [1]
1 | B1 | no binding (tested: 20 nM CRP) | –
2 | B2 | – | binds
